# Data published in patent US20240159758A1 (OPKO DIAGNOSTICS, published 2024).
# B1: biotinylated, recombinant His6-Cys-tagged Fab fragment of the monoclonal antibody 5A10 (Fab, V domains shown)
# VH: EVQLVESGPGILQPSQTLSLTCSFSGFSLSTTGMGVSWIRQPSGKGLEWLAHLYWDEDKRYNPSLKSRLTISEDSSRNQVFLKITSVGPADSATYYCARKGYYGYFDYWGQGTALTVSS
# VL: DIVMTQSQKFMSTSVGDRVSVTCKASQNVNTDVAWYQQKPGQSPKALIFSTSYRSSGVPDRFTGSGSGTDFTLTITNVQSEDLAEYFCQQYSNYPLTFGAGTKVDLN
# modifications: biotinylated (site not stated)
# notes: Mouse monoclonal origin; also called Fab 5A10; 5A10 Fab
# Assays:
# [1] = biological target: T1, Free prostate specific antigen (fPSA) (Homo sapiens (Human), UniProt P07288 25-261); test: sandwich (noncompetitive) DELFIA immunoassay, capture probe
# T1 construct: also called Free PSA
# Experimental: (§1) The concentrations of tPSA and fPSA are determined with commercial assays approved for use in human diagnostics by the FDA (Roche™ Cobas® instrument and Elecsys® assays). The concentrations of iPSA and hK2 are determined using a test developed to run on the PerkinElmer® AutoDELFIA® instrument.
# (§2) The presence of iPSA and hK2 are detected by a sandwich (noncompetitive) immunoassay. The iPSA assay employs two distinct mouse monoclonal antibody products. The capture probe is a biotinylated, recombinant His₆-Cys-tagged Fab fragment of the monoclonal antibody 5A10 with specificity for fPSA (of which iPSA is a component). The tracer is a Europium-labelled monoclonal antibody 4D4, with specificity to iPSA and complexed PSA (PSA-ACT). In combination, the reagents are specific for iPSA. The hK2 assay employs five distinct mouse monoclonal antibody products. The capture probe is a biotinylated, F(ab)₂ fragment of 6H10 monoclonal antibody with specificity for hK2 and tPSA. […]
# (§3) The signals obtained from the detection of iPSA and hK2 in the immunoassays are then compared to the signals obtained from the detection of a set of standards (e.g. the calibrator solutions) using the same iPSA and hK2 antibodies. […] The reporting range is defined by the limit of quantification (LoQ) at the low end and the highest calibrator at the high end. For the iPSA and hK2 assays, the LoQ was determined using CLSI EP-17A.
# [2] = biological target: T2, Intact prostate specific antigen (iPSA) (Homo sapiens (Human), UniProt P07288 25-261); test: as above
# T2 construct: also called Intact PSA
# Experimental: as §1, §2, §3
# T2 sequence (P07288 25-261 limits assumed): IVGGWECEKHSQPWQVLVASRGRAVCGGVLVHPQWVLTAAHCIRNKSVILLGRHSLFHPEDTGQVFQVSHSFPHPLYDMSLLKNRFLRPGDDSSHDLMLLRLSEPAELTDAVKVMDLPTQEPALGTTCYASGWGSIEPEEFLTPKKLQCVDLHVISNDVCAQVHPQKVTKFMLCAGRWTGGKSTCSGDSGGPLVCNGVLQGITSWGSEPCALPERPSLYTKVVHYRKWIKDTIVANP
# T1 sequence (P07288 25-261 limits assumed): as above
binder,measurement,setting,value
B1,binding result,[1],binds
same,binding result,[2],binds
